In article PMC10786891, “Massively parallel profiling of RNA-targeting CRISPR-Cas13d” one finds Kd data, which are given here for 32 molecules.

Changes are numbered by the printed parent chain. In names and notes the source's numbering stands.

B1: target 1 C6G,A18G (mixed)
RNA 1: CACCCGUGCAAAAAUGCAGGGGUCUAAAACUGAGCGGAUAACCUCUCUAUGG
RNA 2: GGGAAUGGAUCCACAUCUACGAAUUCGUACCAUGGAGAGGUUAUCGGCUCACCGAGAUCGGAAGAGCACACGU
B2: target 1 C2U,A20U (mixed)
RNA 1: B1 RNA 1
RNA 2: B1 RNA 2 with A32U, G34A, G46C, C50U
B3: target 1 insU 3' of 14,insA 3' of 10 (mixed)
RNA 1: B1 RNA 1
RNA 2: GGGAAUGGAUCCACAUCUACGAAUUCGUACCAUAGAGAUGGUUAAUCCGCUCACCGAGAUCGGAAGAGCACACGU
B4: target 1 insG 3' of 19,insA 3' of 4 (mixed)
RNA 1: B1 RNA 1
RNA 2: GGGAAUGGAUCCACAUCUACGAAUUCGUACCAUGAGAGAGGUUAUCCGCAUCACCGAGAUCGGAAGAGCACACGU
B5: target 1 U3C,C7A (mixed)
RNA 1: B1 RNA 1
RNA 2: B1 RNA 2 with G34A, C45A, G46C, U49C
B6: target 1 C2A,G12A (mixed)
RNA 1: B1 RNA 1
RNA 2: B1 RNA 2 with G34A, G40A, G46C, C50A
B7: target 1 insG 3' of 8,insC 3' of 1 (mixed)
RNA 1: B1 RNA 1
RNA 2: GGGAAUGGAUCCACAUCUACGAAUUCGUACCAUAGAGAGGUUAUGCCGCUCACCCGAGAUCGGAAGAGCACACGU
B8: target 1 insU 3' of 21,insG 3' of 4 (mixed)
RNA 1: B1 RNA 1
RNA 2: B4 RNA 2 with A32U, U33A, G34U, A50G
B9: target 1 insC 3' of 19,insG 3' of 16 (mixed)
RNA 1: B1 RNA 1
RNA 2: B3 RNA 2 with A34C, G35A, A36G, G37A, A38G, U39G, G40A, U42G, A44U
B10: target 1 insU 3' of 4,insA 3' of 4 (mixed)
RNA 1: B1 RNA 1
RNA 2: B7 RNA 2 with G45C, C47G, G48C, C49U, U50A, C51U, A52C, C53A
B11: target 1 G17A,C22U (mixed)
RNA 1: B1 RNA 1
RNA 2: B1 RNA 2 with C30U, G34A, G35A, G46C
B12: target 1 insC 3' of 3,insC 3' of 1 (mixed)
RNA 1: B1 RNA 1
RNA 2: B7 RNA 2 with G45C, C47G, G48C, C49U, U50C
B13: target 1 insA 3' of 7,insG 3' of 6 (mixed)
RNA 1: B1 RNA 1
RNA 2: B7 RNA 2 with G45C, C46A, C49G, U50C, C51U, A52C, C53A
B14: target 1 C6G,G17U (mixed)
RNA 1: B1 RNA 1
RNA 2: B1 RNA 2 with G34A, G35U
B15: target 1 insA 3' of 22,insU 3' of 21 (mixed)
RNA 1: B1 RNA 1
RNA 2: B3 RNA 2 with C31A, A32C, G35U, U39G, G40A, U42G, A44U
B16: target 1 insC 3' of 3,insG 3' of 1 (mixed)
RNA 1: B1 RNA 1
RNA 2: B7 RNA 2 with G45C, C47G, G48C, C49U, U50C, C53G
B17: target 1 insG 3' of 14,insA 3' of 8 (mixed)
RNA 1: B1 RNA 1
RNA 2: B3 RNA 2 with U39G, A45U, U46A
B18: target 1 insG 3' of 22,insA 3' of 4 (mixed)
RNA 1: B1 RNA 1
RNA 2: B4 RNA 2 with C31G, A32C, U33A, G34U
B19: target 1 insU 3' of 21,insG 3' of 3 (mixed)
RNA 1: B1 RNA 1
RNA 2: B4 RNA 2 with A32U, U33A, G34U, A50U, U51G
B20: target 1 insA 3' of 6,insA 3' of 3 (mixed)
RNA 1: B1 RNA 1
RNA 2: B7 RNA 2 with G45C, C47A, C51A, A52C, C53A
B21: target 1 insC 3' of 15,insG 3' of 4 (mixed)
RNA 1: B1 RNA 1
RNA 2: B4 RNA 2 with G34A, A35G, G36A, A37G, G38C, A50G
B22: target 1 C6G,U8G (mixed)
RNA 1: B1 RNA 1
RNA 2: B1 RNA 2 with G34A, U44G
B23: target 1 insG 3' of 9 (mixed)
RNA 1: B1 RNA 1
RNA 2: GGGAAUGGAUCCACAUCUACGAAUUCGUACCAUAGAGAGGUUAGUCCGCUCACCGAGAUCGGAAGAGCACACGU
B24: target 1 U8G,G15C (mixed)
RNA 1: B1 RNA 1
RNA 2: B1 RNA 2 with G34A, G37C, U44G, G46C
B25: target 1 insC 3' of 12,insU 3' of 5 (mixed)
RNA 1: B1 RNA 1
RNA 2: B3 RNA 2 with U39G, G41C, A45U, U46C, C48G, G49U
B26: target 1 insA 3' of 5,insU 3' of 5 (mixed)
RNA 1: B1 RNA 1
RNA 2: B7 RNA 2 with G45C, C47G, G48A, C49U, U50C, C51U, A52C, C53A
B27: target 1 insC 3' of 17,insG 3' of 7 (mixed)
RNA 1: B1 RNA 1
RNA 2: B3 RNA 2 with A36C, G37A, A38G, U39A, A45U, U46C, C47G
B28: target 1 insU 3' of 22,insG 3' of 7 (mixed)
RNA 1: B1 RNA 1
RNA 2: B4 RNA 2 with C31U, A32C, U33A, G34U, C47G, G48C, C49G, A50C
B29: target 1 insU 3' of 18,insC 3' of 18 (mixed)
RNA 1: B1 RNA 1
RNA 2: B3 RNA 2 with G35U, A36C, U39G, G40A, U42G, A44U
B30: target 1 insC 3' of 19,insG 3' of 14 (mixed)
RNA 1: B1 RNA 1
RNA 2: B3 RNA 2 with A34C, G35A, A36G, G37A, A38G, U39A, U42G, A44U
B31: target 1 G12C,C22A (mixed)
RNA 1: B1 RNA 1
RNA 2: B1 RNA 2 with C30A, G34A, G40C, G46C
B32: target 1 insU 3' of 14,insU 3' of 1 (mixed)
RNA 1: B1 RNA 1
RNA 2: B7 RNA 2 with G39U, U41G, A43U, U44A, G45U, C53U

The target in this series is T1, EsCas13d, nuclease-dead (Eubacterium siraeum, UniProt B0MS50, R295A;H300A;R849A;H854A).
T1 sequence: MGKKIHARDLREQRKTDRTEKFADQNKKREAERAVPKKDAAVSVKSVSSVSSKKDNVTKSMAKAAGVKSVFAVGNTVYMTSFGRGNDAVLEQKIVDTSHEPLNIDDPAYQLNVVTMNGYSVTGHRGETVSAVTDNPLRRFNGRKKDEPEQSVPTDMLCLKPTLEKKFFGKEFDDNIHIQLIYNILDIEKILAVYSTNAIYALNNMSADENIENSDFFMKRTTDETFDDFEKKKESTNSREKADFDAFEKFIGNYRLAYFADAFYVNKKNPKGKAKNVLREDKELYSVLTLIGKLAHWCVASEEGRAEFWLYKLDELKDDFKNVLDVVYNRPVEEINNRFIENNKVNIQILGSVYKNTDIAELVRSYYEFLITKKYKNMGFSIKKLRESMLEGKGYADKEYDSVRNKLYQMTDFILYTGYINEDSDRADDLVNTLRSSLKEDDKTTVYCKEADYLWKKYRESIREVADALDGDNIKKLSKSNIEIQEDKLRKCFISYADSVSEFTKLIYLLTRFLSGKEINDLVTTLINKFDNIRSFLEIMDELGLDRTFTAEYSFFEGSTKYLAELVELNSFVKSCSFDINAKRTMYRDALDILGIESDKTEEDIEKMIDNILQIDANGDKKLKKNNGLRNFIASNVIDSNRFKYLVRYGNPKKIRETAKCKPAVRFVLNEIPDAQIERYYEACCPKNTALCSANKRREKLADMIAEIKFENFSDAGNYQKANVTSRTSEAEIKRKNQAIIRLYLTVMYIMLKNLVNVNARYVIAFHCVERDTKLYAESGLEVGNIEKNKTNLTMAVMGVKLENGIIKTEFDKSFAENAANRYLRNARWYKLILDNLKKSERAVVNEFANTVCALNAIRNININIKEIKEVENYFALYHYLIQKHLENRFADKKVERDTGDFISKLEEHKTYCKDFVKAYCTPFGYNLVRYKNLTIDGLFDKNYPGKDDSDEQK
Briefly: crRNA (strand 1, pre-loaded); Mg2+; 40 mM Tris-HCl pH 7.5, 150 mM NaCl, 6 mM MgCl2, 1 mM DTT, 0.1% Tween-20, 0.2 mg/ml BSA; 25 C; 10 min per concentration, then washed. The conditions noted are these: tags: His6-TwinStrep-SUMO cleaved; N-terminal SNAP kept (SNAP-Surface 488); label: 3' end held by stalled T7 RNA polymerase.
Take B1: binding was characterised by a dissociation constant (Kd) of 48 ± 7 nM.

For B2, the Kd was 34 ± 4 nM.

In turn, B3 registered a Kd of 43 ± 5 nM.

In the case of B4, the affinity, expressed as Kd, was 34.8 ± 3.1 nM.

In the case of B5, the Kd was 8 ± 0.4 nM.

For B6, the affinity, expressed as Kd, was 4.57 ± 0.22 nM.

In the case of B7, the affinity, expressed as Kd, was 11.6 ± 0.5 nM.

Turning to B8, the Kd was 24.9 ± 2.8 nM.

Molecule B9 returned a Kd of 61 ± 11 nM.

B10 yielded a Kd of 9.1 ± 0.5 nM.

Regarding B11, binding was characterised by a dissociation constant (Kd) of 59 ± 11 nM.

Molecule B12 displayed an equilibrium dissociation constant (Kd) of 15.8 ± 1.1 nM.

Take B13: the affinity, expressed as Kd, was 8.09 ± 0.34 nM.

For the molecule B14, the Kd was determined as 31.4 ± 2.7 nM.

The molecule B15 registered a Kd of 6.09 ± 0.28 nM.

Consider B16, for which the affinity, expressed as Kd, was 11.1 ± 0.8 nM.

Molecule B17 had a Kd of 10.6 ± 0.4 nM.

Turning to B18, the Kd stood at 17.9 ± 2.6 nM.

B19 registered a Kd of 16.8 ± 0.7 nM.

B20 showed a dissociation constant Kd of 21.5 ± 2.2 nM.

Molecule B21 yielded a Kd of 10.7 ± 0.6 nM.

B22 had a dissociation constant Kd of 12.8 ± 0.6 nM.

As for B23, binding was put at a Kd of 17.2 ± 1 nM.

In turn, B24 registered a Kd of 90 ± 19 nM.

B25: the affinity, expressed as Kd, was 11.6 ± 1.5 nM.

As for B26, binding was put at a Kd of 6.6 ± 0.6 nM.

Molecule B27 showed a Kd of 42 ± 7 nM.

On to B28, for which the Kd was found to be 22.8 ± 1.6 nM.

Regarding B29, binding was characterised by a dissociation constant (Kd) of 84 ± 9 nM.

In turn, B30 displayed a Kd of 72 ± 11 nM.

B31: binding was put at a Kd of 25 ± 1.1 nM.

For B32, binding was put at a Kd of 48 ± 8 nM.

The Kd is the free concentration of one partner at which half of the binding sites on the other are occupied at equilibrium, for simple one-to-one binding.
